Earlier results, collected in paper PMC9880166.
pKd: −log10 of the molar value. Where two headings read alike, the source gives them in different places.

Assays:
[1] = target: prolactin receptor (Homo sapiens) (UniProt P16471); assay: SPR
[2] = target: prolactin receptor (Homo sapiens) (UniProt P16471)

Chain of prolactin (P01236 29-227): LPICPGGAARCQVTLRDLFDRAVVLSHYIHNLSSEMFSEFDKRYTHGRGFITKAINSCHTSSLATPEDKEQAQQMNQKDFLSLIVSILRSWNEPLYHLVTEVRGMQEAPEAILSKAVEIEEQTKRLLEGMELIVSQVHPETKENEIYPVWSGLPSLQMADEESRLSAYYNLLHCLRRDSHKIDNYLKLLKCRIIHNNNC
Chain of UniProt P16471 (P16471 25-234): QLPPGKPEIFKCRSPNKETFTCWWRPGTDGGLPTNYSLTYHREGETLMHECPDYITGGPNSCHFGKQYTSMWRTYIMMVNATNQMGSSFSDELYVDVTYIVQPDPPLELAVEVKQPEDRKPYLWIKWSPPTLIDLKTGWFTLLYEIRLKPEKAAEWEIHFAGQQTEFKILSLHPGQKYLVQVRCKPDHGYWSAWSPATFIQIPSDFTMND

pKd [1]: 7.64 | pKd [2]: 7.52
Substance: prolactin (from UniProt P01236)
